For data set [1], the target named is T1, MORC2 WT (Homo sapiens, UniProt Q9Y6X9 1-1032).
T1 sequence: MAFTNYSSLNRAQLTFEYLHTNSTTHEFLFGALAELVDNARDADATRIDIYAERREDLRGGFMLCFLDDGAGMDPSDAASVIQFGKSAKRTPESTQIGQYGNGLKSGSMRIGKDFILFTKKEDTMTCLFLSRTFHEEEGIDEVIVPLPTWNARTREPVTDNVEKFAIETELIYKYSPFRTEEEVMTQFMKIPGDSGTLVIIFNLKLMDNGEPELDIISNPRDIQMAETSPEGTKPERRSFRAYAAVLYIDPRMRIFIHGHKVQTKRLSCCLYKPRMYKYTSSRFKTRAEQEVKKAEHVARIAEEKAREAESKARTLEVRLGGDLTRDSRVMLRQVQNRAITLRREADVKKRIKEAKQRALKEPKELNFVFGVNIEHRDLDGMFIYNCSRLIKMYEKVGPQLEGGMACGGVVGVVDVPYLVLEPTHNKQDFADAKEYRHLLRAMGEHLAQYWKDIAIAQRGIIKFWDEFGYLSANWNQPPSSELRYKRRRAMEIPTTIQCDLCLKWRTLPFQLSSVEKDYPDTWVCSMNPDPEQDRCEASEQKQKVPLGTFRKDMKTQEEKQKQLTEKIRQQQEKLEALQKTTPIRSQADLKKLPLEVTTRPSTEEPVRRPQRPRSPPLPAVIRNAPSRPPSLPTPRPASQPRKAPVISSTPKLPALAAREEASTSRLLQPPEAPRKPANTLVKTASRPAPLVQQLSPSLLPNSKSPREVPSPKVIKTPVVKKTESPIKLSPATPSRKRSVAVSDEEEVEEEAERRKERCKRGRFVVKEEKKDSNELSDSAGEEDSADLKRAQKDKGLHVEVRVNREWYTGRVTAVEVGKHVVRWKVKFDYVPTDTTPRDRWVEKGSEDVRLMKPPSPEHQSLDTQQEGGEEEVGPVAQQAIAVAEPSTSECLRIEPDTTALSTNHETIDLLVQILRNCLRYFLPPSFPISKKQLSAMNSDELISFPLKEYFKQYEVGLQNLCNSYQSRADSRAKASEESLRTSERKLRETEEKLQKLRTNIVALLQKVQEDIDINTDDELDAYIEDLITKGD
The data set is described as follows: competition; pre-bound; 90 bp competitor still taken up; EMSA: 20 mM Tris pH 7.4, 75 mM NaCl, 5% glycerol, 0.005% NP-40, 0.5 mM MgCl2, RT 30 min; SPR: 10 mM HEPES pH 7.4, 300 mM NaCl, 3 mM EDTA, 0.05% Tween-20, 20 C. Particulars: protein: recombinant; tags: C-terminal 3C site-twin StrepII; chain copies: 2; linear. A general note: In EMSA bound probe runs differently from free probe, usually more slowly.

Data set [2] addresses T2, MORC2 ATPase (Homo sapiens, UniProt Q9Y6X9 1-603).
T2 sequence: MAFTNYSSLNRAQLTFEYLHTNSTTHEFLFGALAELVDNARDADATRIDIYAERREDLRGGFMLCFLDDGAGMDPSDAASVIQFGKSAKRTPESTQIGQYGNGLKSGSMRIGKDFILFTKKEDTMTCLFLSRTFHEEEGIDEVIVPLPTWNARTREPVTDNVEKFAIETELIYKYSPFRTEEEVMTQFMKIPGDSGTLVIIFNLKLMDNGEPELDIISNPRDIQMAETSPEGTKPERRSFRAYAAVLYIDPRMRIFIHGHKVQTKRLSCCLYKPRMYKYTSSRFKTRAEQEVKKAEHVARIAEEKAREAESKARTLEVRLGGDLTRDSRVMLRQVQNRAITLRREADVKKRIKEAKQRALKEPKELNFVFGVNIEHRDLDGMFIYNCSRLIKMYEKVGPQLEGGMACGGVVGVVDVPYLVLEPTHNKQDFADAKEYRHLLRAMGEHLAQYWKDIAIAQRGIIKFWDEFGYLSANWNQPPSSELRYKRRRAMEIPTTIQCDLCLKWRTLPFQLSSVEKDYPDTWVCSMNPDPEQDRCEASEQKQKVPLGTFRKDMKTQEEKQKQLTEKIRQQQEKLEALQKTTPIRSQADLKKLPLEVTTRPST
In words: competition; pre-bound; more competitor uptake than WT; EMSA: 20 mM Tris pH 7.4, 75 mM NaCl, 5% glycerol, 0.005% NP-40, 0.5 mM MgCl2, RT 30 min; SPR: 10 mM HEPES pH 7.4, 300 mM NaCl, 3 mM EDTA, 0.05% Tween-20, 20 C. The note with it: protein: recombinant; tags: N-terminal 6xHis; closed circle.

The target of data set [3] is T1, MORC2 WT. In words: competition; pre-bound; resists 90 bp competitor (clamp); EMSA: 20 mM Tris pH 7.4, 75 mM NaCl, 5% glycerol, 0.005% NP-40, 0.5 mM MgCl2, RT 30 min; SPR: 10 mM HEPES pH 7.4, 300 mM NaCl, 3 mM EDTA, 0.05% Tween-20, 20 C. Particulars: protein: recombinant; tags: C-terminal 3C site-twin StrepII; chain copies: 2; closed circle.
The target in data set [4] is T3, MORC2 dephosphorylated (Homo sapiens, UniProt Q9Y6X9 1-1032).
T3 sequence: T1 sequence
The data set is described as follows: SPR; lambda-PPase treated; EMSA: 20 mM Tris pH 7.4, 75 mM NaCl, 5% glycerol, 0.005% NP-40, 0.5 mM MgCl2, RT 30 min; SPR: 10 mM HEPES pH 7.4, 300 mM NaCl, 3 mM EDTA, 0.05% Tween-20, 20 C. Particulars: protein: recombinant; tags: C-terminal 3C site-twin StrepII; chain copies: 2; label: 5'-biotin on strand 1; blunt. For orientation: Surface plasmon resonance follows binding to a sensor surface in real time, without labels.

In data set [5] the target is T1, MORC2 WT. In words: SPR; EMSA: 20 mM Tris pH 7.4, 75 mM NaCl, 5% glycerol, 0.005% NP-40, 0.5 mM MgCl2, RT 30 min; SPR: 10 mM HEPES pH 7.4, 300 mM NaCl, 3 mM EDTA, 0.05% Tween-20, 20 C. The note with it: protein: recombinant; tags: C-terminal 3C site-twin StrepII; chain copies: 2; label: 5'-biotin on strand 1; blunt.
Data set [6] has as its target T4, MORC2 CW (Homo sapiens, UniProt Q9Y6X9 496-603).
T4 sequence: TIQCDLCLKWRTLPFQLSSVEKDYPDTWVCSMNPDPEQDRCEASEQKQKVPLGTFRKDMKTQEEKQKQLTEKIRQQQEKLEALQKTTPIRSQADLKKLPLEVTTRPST
The data set is described as follows: EMSA; negligible binding; EMSA: 20 mM Tris pH 7.4, 75 mM NaCl, 5% glycerol, 0.005% NP-40, 0.5 mM MgCl2, RT 30 min; SPR: 10 mM HEPES pH 7.4, 300 mM NaCl, 3 mM EDTA, 0.05% Tween-20, 20 C. Particulars: protein: recombinant; tags: C-terminal 3C site-twin StrepII; label: 5' 6FAM, IRDye680 or IRDye800 on XOm1; blunt.

For data set [7], the target named is T5, MORC2 GHKL+CC1 (Homo sapiens, UniProt Q9Y6X9 1-495).
T5 sequence: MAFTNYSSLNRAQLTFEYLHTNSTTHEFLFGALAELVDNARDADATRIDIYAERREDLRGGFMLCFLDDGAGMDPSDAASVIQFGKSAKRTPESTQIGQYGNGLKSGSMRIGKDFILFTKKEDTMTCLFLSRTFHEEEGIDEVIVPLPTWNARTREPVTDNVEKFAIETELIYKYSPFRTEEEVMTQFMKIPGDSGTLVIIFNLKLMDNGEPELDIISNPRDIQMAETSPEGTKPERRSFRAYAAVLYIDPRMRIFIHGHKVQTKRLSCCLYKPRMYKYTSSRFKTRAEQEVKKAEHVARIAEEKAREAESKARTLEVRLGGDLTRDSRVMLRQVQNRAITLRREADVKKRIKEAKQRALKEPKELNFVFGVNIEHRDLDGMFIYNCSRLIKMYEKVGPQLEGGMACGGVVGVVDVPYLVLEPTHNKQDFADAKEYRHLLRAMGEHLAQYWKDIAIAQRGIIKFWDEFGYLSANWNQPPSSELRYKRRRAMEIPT
The description is as above. Particulars: protein: recombinant; tags: C-terminal 3C site-twin StrepII; label: 5' 6FAM, IRDye680 or IRDye800 on XOm1; blunt.

Data set [8] concerns the target T6, MORC2 CC2 (Homo sapiens, UniProt Q9Y6X9 544-587).
T6 chain: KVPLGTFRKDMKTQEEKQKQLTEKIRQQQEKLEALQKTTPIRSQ
In words: EMSA; DNA length inferred; EMSA: 20 mM Tris pH 7.4, 75 mM NaCl, 5% glycerol, 0.005% NP-40, 0.5 mM MgCl2, RT 30 min; SPR: 10 mM HEPES pH 7.4, 300 mM NaCl, 3 mM EDTA, 0.05% Tween-20, 20 C. The note with it: protein: recombinant; tags: C-terminal 3C site-twin StrepII; label: 5' 6FAM, IRDye680 or IRDye800 on XOm1; blunt.

Data set [9] concerns the target T7, MORC2 CC3 (Homo sapiens, UniProt Q9Y6X9 738-776).
T7 chain: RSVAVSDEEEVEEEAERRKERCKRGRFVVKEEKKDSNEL
Described as above. Particulars: protein: recombinant; tags: C-terminal 3C site-twin StrepII; label: 5' 6FAM, IRDye680 or IRDye800 on XOm1; blunt.

B1: 101 bp linear dsDNA (dsDNA)
DNA 1: CGGTCGTTTAGCATACTAATCTGAGAGTCCGACGGTCGTCAGTCAGTCATGACTTCACAGAGGAAGGGCCAGTATCCTGTCCAAACTTGATGCTCGAATTC
DNA 2: GAATTCGAGCATCAAGTTTGGACAGGATACTGGCCCTTCCTCTGTGAAGTCATGACTGACTGACGACCGTCGGACTCTCAGATTAGTATGCTAAACGACCG
As to B1, the binding result in data set [1] is reported as “binds”.

B2: 101 bp circular dsDNA (dsDNA)
DNA 1: B1 DNA 1
DNA 2: B1 DNA 2
Turning to B2, the binding result in data set [2] and in data set [3] was “binds” each time.

B3: 60 bp dsDNA (biotin, SPR) (dsDNA)
DNA 1: ACGCTGCCGAATTCTACCAGTGCCTTGCTAGGACATCTTTGCCCACCTGCAGGTTCACCC
DNA 2: GGGTGAACCTGCAGGTGGGCAAAGATGTCCTAGCAAGGCACTGGTAGAATTCGGCAGCGT
One may read the Kd as the free concentration of one partner at which half of the binding sites on the other are occupied at equilibrium, for simple one-to-one binding. Regarding B3, the figures for the dissociation constant (Kd) in [4] and in [5] were 15.3 ± 9.1 nM and 26.3 ± 11.4 nM, respectively.

B4: 60 bp dsDNA (XOm1/XOm1.comp) (dsDNA)
DNA 1: B3 DNA 1
DNA 2: B3 DNA 2
B4: the binding result was “no binding” in data set [6], “no binding” in data set [7], “binds” in data set [8] and “no binding” in data set [9].

The record behind these values is paper PMC12216690, “MORC2 is a phosphorylation-dependent DNA compaction machine” (Nature Communications, 2024).
